The data set concerns the molecule itself. The experiment in a line: crystal structure; GapA crystals from PACT G2 (0.2 M sodium bromide, 0.1 M Bis Tris propane 7.5, 20% PEG 3350), grown at 22°C, soaked with about 10 mM acP for less than 30 sec; data at 100 K.

These results are taken from article PMC3995681, “Structural, Kinetic and Proteomic Characterization of Acetyl Phosphate-Dependent Bacterial Protein Acetylation” (PLoS ONE, 2014).

B1: glyceraldehyde-3-phosphate dehydrogenase (GapA) from E. coli (enzyme, E. coli K-12, UniProt P0A9B2 1-331, looked up)
chain: MTIKVGINGFGRIGRIVFRAAQKRSDIEIVAINDLLDADYMAYMLKYDSTHGRFDGTVEVKDGHLIVNGKKIRVTAERDPANLKWDEVGVDVVAEATGLFLTDETARKHITAGAKKVVMTGPSKDNTPMFVKGANFDKYAGQDIVSNASCTTNCLAPLAKVINDNFGIIEGLMTTVHATTATQKTVDGPSHKDWRGGRGASQNIIPSSTGAAKAVGKVLPELNGKLTGMAFRVPTPNVSVVDLTVRLEKAATYEQIKAAVKAAAEGEMKGVLGYTEDDVVSTDFNGEVCTSVFDAKAGIALNDNFVKLVSWYDNETGYSNKVLDLIAHISK
modifications: acetyl-lysine at K46, K249, K257 and K116 after the acP soak of the crystals (not in all molecules of the asymmetric unit)
notes: glyceraldehyde-3-phosphate dehydrogenase GapA, E. coli K-12, ORF of the gene from the ASKA clone; The crystals were grown from unmodified protein and acetylated by a soak with acP of under 30 sec; source: E. coli BL-21 (DE3) Magic cells, ASKA clone in pCA24N, purified
What is called stoichiometry N is a count of units in the complex or per binding partner. Regarding B1, the “stoichiometry N” value is 4.
